Results reported in paper PMC8897712 (The Journal of Biological Chemistry, 2022).
Numbering of substitutions follows the chain as printed. Read-outs that look alike come from different tables or passages of the source.

Assays:
FtsA(ΔMTS) [1] = target: T1, FtsA(ΔMTS) (Escherichia coli, UniProt P0ABH0); test: sedimentation of polymers; assay type: biochemical; details: 50 mM Tris-HCl pH 7.5, 150 mM KCl, 4 mM MgCl2, 23 °C; polymerisation
T1 sequence (P0ABH0 1-404): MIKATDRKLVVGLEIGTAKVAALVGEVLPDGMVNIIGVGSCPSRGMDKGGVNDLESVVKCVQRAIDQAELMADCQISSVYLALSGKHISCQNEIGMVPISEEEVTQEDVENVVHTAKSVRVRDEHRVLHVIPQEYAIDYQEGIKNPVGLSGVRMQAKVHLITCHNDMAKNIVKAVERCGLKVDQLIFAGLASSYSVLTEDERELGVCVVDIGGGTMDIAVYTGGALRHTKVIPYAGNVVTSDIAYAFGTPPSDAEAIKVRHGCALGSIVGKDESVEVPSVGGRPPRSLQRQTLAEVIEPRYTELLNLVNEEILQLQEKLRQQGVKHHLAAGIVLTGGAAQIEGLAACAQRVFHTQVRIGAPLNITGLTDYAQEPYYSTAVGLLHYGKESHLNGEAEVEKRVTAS

FtsA(ΔMTS) [2] = target: T1, FtsA(ΔMTS); details: 50 mM Tris-HCl pH 7.5, 150 mM KCl, 4 mM MgCl2, 23 °C, ATP 4 mM; polymerisation
Escherichia coli FtsA = target: T2, Escherichia coli FtsA (E. coli, UniProt P0ABH0 1-420); test: co-sedimentation
T2 sequence: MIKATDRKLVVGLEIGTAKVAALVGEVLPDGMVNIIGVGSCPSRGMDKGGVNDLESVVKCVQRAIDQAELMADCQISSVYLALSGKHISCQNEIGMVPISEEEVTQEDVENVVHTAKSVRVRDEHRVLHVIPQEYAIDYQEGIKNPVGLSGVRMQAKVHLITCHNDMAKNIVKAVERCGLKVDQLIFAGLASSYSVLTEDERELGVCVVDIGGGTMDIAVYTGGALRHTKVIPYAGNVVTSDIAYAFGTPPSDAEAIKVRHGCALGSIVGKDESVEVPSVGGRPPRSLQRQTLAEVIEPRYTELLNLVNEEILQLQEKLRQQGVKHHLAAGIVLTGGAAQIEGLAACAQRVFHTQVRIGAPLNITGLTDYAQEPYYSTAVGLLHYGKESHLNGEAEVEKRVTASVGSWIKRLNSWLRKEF

FtsA(E14R) = target: T3, FtsA(E14R) (E. coli, UniProt P0ABH0 1-420, E14R); test: co-sedimentation
T3 sequence: T2 sequence with E14R

FtsA(ΔMTS) [3] = target: T4, FtsA(ΔMTS) (E. coli, UniProt P0ABH0 1-404); test: negative-stain transmission electron microscopy
T4 sequence: T1 sequence (P0ABH0 1-404)

[4] = target: the molecule itself; test: negative-stain transmission electron microscopy
FtsA(ΔMTS) [5] = target: T4, FtsA(ΔMTS); test: bead recruitment assay

Nc1ncnc2c1ncn2[C@@H]1O[C@H](COP(=O)(O)OP(=O)(O)O)[C@@H](O)[C@H]1O [ADP]
% FtsA(ΔMTS) in pellet (FtsA(ΔMTS) [1]): 22.4%

Nc1ncnc2c1ncn2[C@@H]1O[C@H](COP(=O)(O)OP(=O)(O)OP(=O)(O)O)[C@@H](O)[C@H]1O [ATP]
% FtsA(ΔMTS) in pellet (FtsA(ΔMTS) [2]): 50.0%

B1: Escherichia coli FtsZ (natural protein)
chain: MFEPMELTNDAVIKVIGVGGGGGNAVEHMVRERIEGVEFFAVNTDAQALRKTAVGQTIQIGSGITKGLGAGANPEVGRNAADEDRDALRAALEGADMVFIAAGMGGGTGTGAAPVVAEVAKDLGILTVAVVTKPFNFEGKKRMAFAEQGITELSKHVDSLITIPNDKLLKVLGRGISLLDAFGAANDVLKGAVQGIAELITRPGLMNVDFADVRTVMSEMGYAMMGSGVASGEDRAEEAAEMAISSPLLEDIDLSGARGVLVNITAGFDLRLDEFETVGNTIRAFASDNATVVIGTSLDPDMNDELRVTVVATGIGMDKRPEITLVTNKQVQQPVMDRYQQHGMAPLTQEQKPVAKVVNDNAPQTAKEPDYLDIPAFLRKQAD
binding result (Escherichia coli FtsA): binds
binding result (FtsA(E14R)): binds
binding result (FtsA(ΔMTS) [3]): binds
binding result [4]: binds

B2: H6-Gfp-FtsZ (natural protein)
chain: B1 chain
binding result (FtsA(ΔMTS) [5]): binds
